Results from the supplement of paper PMC5998384.

What was measured:
HeLa Kyoto [1] = test: solubility change mitosis vs G1/S (difference of NP-40 vs SDS log2 ratios) (log2 ratio difference); higher = more soluble in mitosis
HeLa Kyoto [2] = test: solubility in G1/S (NP-40 vs SDS abundance) (log2 ratio); higher = more soluble; conditions: cell cycle stage: G1/S
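For solubility change mitosis vs G1/S (difference of NP-40 vs SDS log2 ratios) in this document: synchronized HeLa Kyoto cells (double thymidine block for G1/S, nocodazole release for mitosis), protein amounts in NP-40 versus SDS lysates quantified by mass spectrometry, three biological replicates.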
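For solubility in G1/S (NP-40 vs SDS abundance) in this document: HeLa Kyoto cells arrested at G1/S by double thymidine block, proteins quantified by TMT10plex mass spectrometry in mild NP-40 versus SDS extracts, three biological replicates.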

| Sequence | solubility change mitosis (log2) (HeLa Kyoto [1]) | solubility in G1/S (log2) (HeLa Kyoto [2]) |
| --- | --- | --- |
| MKRHRPVSSSDSSDESPSTSFTSGSMYRIKSKIPNEHKKPAEVFRKDLISAMKLPDSHHINPDSYYLFADTWKEEWEKGVQVPASPDTVPQPSLRIIAEKVKDVLFIRPRKYIHCSSPDTTEPGYINIMELAASVCRYDLDDMDIFWLQELNEDLAEMGCGPVDENLMEKTVEVLERHCHENMNHAIETEEGLGIEYDEDVICDVCRSPDSEEGNDMVFCDKCNVCVHQACYGILKVPEGSWLCRSCVLGIYPQCVLCPKKGGALKTTKTGTKWAHVSCALWIPEVSIACPERMEPITKISHIPPSRWALVCNLCKLKTGACIQCSIKSCITAFHVTCAFEHGLEMKTILDEGDEVKFKSYCLKHSQNRQKLGEAEYPHHRAKEQSQAKSEKTSLRAQKLRELEEEFYSLVRVEDVAAELGMPTLAVDFIYNYWKLKRKSNFNKPLFPPKEDEENGLVQPKEESIHTRMRMFMHLRQDLERVRNLCYMISRREKLKLSHNKIQEQIFGLQVQLLNQEIDAGLPLTNALENSLFYPPPRITLKLKMPKSTPEDHRNSSTETDQQPHSPDSSSSVHSIRNMQVPQESLEMRTKSYPRYPLESKNNRLLASLSHSRSEAKESSPAWRTPSSECYHGQSLGKPLVLQAALHGQSSIGNGKSQPNSKFAKSNGLEGSWSGNVTQKDSSSEMFCDQEPVFSPHLVSQGSFRKSTVEHFSRSFKETTNRWVKNTEDLQCYVKPTKNMSPKEQFWGRQVLRRSAGRAPYQENDGYCPDLELSDSEAESDGNKEKVRVRKDSSDRENPPHDSRRDCHGKSKTHPLSHSSMQR [JADE3] | 0.383 | -0.949 |
| MKSSGLFPFLVLLALGTLAPWAVEGSGKSFKAGVCPPKKSAQCLRYKKPECQSDWQCPGKKRCCPDTCGIKCLDPVDTPNPTRRKPGKCPVTYGQCLMLNPPNFCEMDGQCKRDLKCCMGMCGKSCVSPVKA [SLPI] | 0.714 | -0.403 |
| MKTSPRRPLILKRRRLPLPVQNAPSETSEEEPKRSPAQQESNQAEASKEVAESNSCKFPAGIKIINHPTMPNTQVVAIPNNANIHSIITALTAKGKESGSSGPNKFILISCGGAPTQPPGLRPQTQTSYDAKRTEVTLETLGPKPAARDVNLPRPPGALCEQKRETCADGEAAGCTINNSLSNIQWLRKMSSDGLGSRSIKQEMEEKENCHLEQRQVKVEEPSRPSASWQNSVSERPPYSYMAMIQFAINSTERKRMTLKDIYTWIEDHFPYFKHIAKPGWKNSIRHNLSLHDMFVRETSANGKVSFWTIHPSANRYLTLDQVFKPLDPGSPQLPEHLESQQKRPNPELRRNMTIKTELPLGARRKMKPLLPRVSSYLVPIQFPVNQSLVLQPSVKVPLPLAASLMSSELARHSKRVRIAPKVLLAEEGIAPLSSAGPGKEEKLLFGEGFSPLLPVQTIKEEEIQPGEEMPHLARPIKVESPPLEEWPSPAPSFKEESSHSWEDSSQSPTPRPKKSYSGLRSPTRCVSEMLVIQHRERRERSRSRRKQHLLPPCVDEPELLFSEGPSTSRWAAELPFPADSSDPASQLSYSQEVGGPFKTPIKETLPISSTPSKSVLPRTPESWRLTPPAKVGGLDFSPVQTSQGASDPLPDPLGLMDLSTTPLQSAPPLESPQRLLSSEPLDLISVPFGNSSPSDIDVPKPGSPEPQVSGLAANRSLTEGLVLDTMNDSLSKILLDISFPGLDEDPLGPDNINWSQFIPELQ [FOXM1] | -0.0969 | 0.114 |
| MKTVLMVAEKPSLAQSIAKILSRGSLSSHKGLNGACSVHEYTGTFAGQPVRFKMTSVCGHVMTLDFLGKYNKWDKVDPAELFSQAPTEKKEANPKLNMVKFLQVEGRGCDYIVLWLDCDKEGENICFEVLDAVLPVMNKAHGGEKTVFRARFSSITDTDICNAMACLGEPDHNEALSVDARQELDLRIGCAFTRFQTKYFQGKYGDLDSSLISFGPCQTPTLGFCVERHDKIQSFKPETYWVLQAKVNTDKDRSLLLDWDRVRVFDREIAQMFLNMTKLEKEAQVEATSRKEKAKQRPLALNTVEMLRVASSSLGMGPQHAMQTAERLYTQGYISYPRTETTHYPENFDLKGSLRQQANHPYWADTVKRLLAEGINRPRKGHDAGDHPPITPMKSATEAELGGDAWRLYEYITRHFIATVSHDCKYLQSTISFRIGPELFTCSGKTVLSPGFTEVMPWQSVPLEESLPTCQRGDAFPVGEVKMLEKQTNPPDYLTEAELITLMEKHGIGTDASIPVHINNICQRNYVTVESGRRLKPTNLGIVLVHGYYKIDAELVLPTIRSAVEKQLNLIAQGKADYRQVLGHTLDVFKRKFHYFVDSIAGMDELMEVSFSPLAATGKPLSRCGKCHRFMKYIQAKPSRLHCSHCDETYTLPQNGTIKLYKELRCPLDDFELVLWSSGSRGKSYPLCPYCYNHPPFRDMKKGMGCNECTHPSCQHSLSMLGIGQCVECESGVLVLDPTSGPKWKVACNKCNVVAHCFENAHRVRVSADTCSVCEAALLDVDFNKAKSPLPGDETQHMGCVFCDPVFQELVELKHAASCHPMHRGGPGRRQGRGRGRARRPPGKPNPRRPKDKMSALAAYFV [TOP3B] | 0.0647 | -0.535 |
| MLEPQENGVIDLPDYEHVEDETFPPFPPPASPERQDGEGTEPDEESGNGAPVRVPPKRTVKRNIPKLDAQRLISERGLPALRHVFDKAKFKGKGHEAEDLKMLIRHMEHWAHRLFPKLQFEDFIDRVEYLGSKKEVQTCLKRIRLDLPILHEDFVSNNDEVAENNEHDVTSTELDPFLTNLSESEMFASELSRSLTEEQQQRIERNKQLALERRQAKLLSNSQTLGNDMLMNTPRAHTVEEVNTDEDQKEESNGLNEDILDNPCNDAIANTLNEEETLLDQSFKNVQQQLDATSRNITEAR [TIPIN] | 0.273 | 0.321 |
| MLFTVSCSKMSSIVDRDDSSIFDGLVEEDDKDKAKRVSRNKSEKKRRDQFNVLIKELGSMLPGNARKMDKSTVLQKSIDFLRKHKEITAQSDASEIRQDWKPTFLSNEEFTQLMLEALDGFFLAIMTDGSIIYVSESVTSLLEHLPSDLVDQSIFNFIPEGEHSEVYKILSTHLLESDSLTPEYLKSKNQLEFCCHMLRGTIDPKEPSTYEYVKFIGNFKSLNSVSSSAHNGFEGTIQRTHRPSYEDRVCFVATVRLATPQFIKEMCTVEEPNEEFTSRHSLEWKFLFLDHRAPPIIGYLPFEVLGTSGYDYYHVDDLENLAKCHEHLMQYGKGKSCYYRFLTKGQQWIWLQTHYYITYHQWNSRPEFIVCTHTVVSYAEVRAERRRELGIEESLPETAADKSQDSGSDNRINTVSLKEALERFDHSPTPSASSRSSRKSSHTAVSDPSSTPTKIPTDTSTPPRQHLPAHEKMVQRRSSFSSQSINSQSVGSSLTQPVMSQATNLPIPQGMSQFQFSAQLGAMQHLKDQLEQRTRMIEANIHRQQEELRKIQEQLQMVHGQGLQMFLQQSNPGLNFGSVQLSSGNSSNIQQLAPINMQGQVVPTNQIQSGMNTGHIGTTQHMIQQQTLQSTSTQSQQNVLSGHSQQTSLPSQTQSTLTAPLYNTMVISQPAAGSMVQIPSSMPQNSTQSAAVTTFTQDRQIRFSQGQQLVTKLVTAPVACGAVMVPSTMLMGQVVTAYPTFATQQQQSQTLSVTQQQQQQSSQEQQLTSVQQPSQAQLTQPPQQFLQTSRLLHGNPSTQLILSAAFPLQQSTFPQSHHQQHQSQQQQQLSRHRTDSLPDPSKVQPQ [CLOCK] | -0.192 | 0.134 |
| MLQKPRNRGRSGGQAERDRDWSHSGNPGASRAGEDARVLRDGFAEEAPSTSRGPGGSQGSQGPSPQGARRAQAAPAVGPRSQKQLELKVSELVQFLLIKDQKKIPIKRADILKHVIGDYKDIFPDLFKRAAERLQYVFGYKLVELEPKSNTYILINTLEPVEEDAEMRGDQGTPTTGLLMIVLGLIFMKGNTIKETEAWDFLRRLGVYPTKKHLIFGDPKKLITEDFVRQRYLEYRRIPHTDPVDYEFQWGPRTNLETSKMKVLKFVAKVHNQDPKDWPAQYCEALADEENRARPQPSGPAPSS [NDNL2] | 0.116 | 0.289 |
| MLRTAMGLRSWLAAPWGALPPRPPLLLLLLLLLLLQPPPPTWALSPRISLPLGSEERPFLRFEAEHISNYTALLLSRDGRTLYVGAREALFALSSNLSFLPGGEYQELLWGADAEKKQQCSFKGKDPQRDCQNYIKILLPLSGSHLFTCGTAAFSPMCTYINMENFTLARDEKGNVLLEDGKGRCPFDPNFKSTALVVDGELYTGTVSSFQGNDPAISRSQSLRPTKTESSLNWLQDPAFVASAYIPESLGSLQGDDDKIYFFFSETGQEFEFFENTIVSRIARICKGDEGGERVLQQRWTSFLKAQLLCSRPDDGFPFNVLQDVFTLSPSPQDWRDTLFYGVFTSQWHRGTTEGSAVCVFTMKDVQRVFSGLYKEVNRETQQWYTVTHPVPTPRPGACITNSARERKINSSLQLPDRVLNFLKDHFLMDGQVRSRMLLLQPQARYQRVAVHRVPGLHHTYDVLFLGTGDGRLHKAVSVGPRVHIIEELQIFSSGQPVQNLLLDTHRGLLYAASHSGVVQVPMANCSLYRSCGDCLLARDPYCAWSGSSCKHVSLYQPQLATRPWIQDIEGASAKDLCSASSVVSPSFVPTGEKPCEQVQFQPNTVNTLACPLLSNLATRLWLRNGAPVNASASCHVLPTGDLLLVGTQQLGEFQCWSLEEGFQQLVASYCPEVVEDGVADQTDEGGSVPVIISTSRVSAPAGGKASWGADRSYWKEFLVMCTLFVLAVLLPVLFLLYRHRNSMKVFLKQGECASVHPKTCPVVLPPETRPLNGLGPPSTPLDHRGYQSLSDSPPGSRVFTESEKRPLSIQDSFVEVSPVCPRPRVRLGSEIRDSVV [SEMA4B] | -0.0944 | 0.234 |
| MLTEASLSIWGWGSLGIVLFLITFGPFVIFYLTFYILCFVGGGLVVTLLFGKTNSEKYLEQCEHSFLPPTSPGVPKCLEEMKREARTIKIDRRLTGANIIDEPLQQVIQFSLRDYVQYWYYTLSDDESFLLEIRQTLQNALIQFATRSKEIDWQPYFTTRIVDDFGTHLRVFRKAQQKITEKDDQVKGTAEDLVDTFFEVEVEMEKEVCRDLVCTSPKDEEGFLRDLCEVLLYLLLPPGDFQNKIMRYFVREILARGILLPLINQLSDPDYINQYVIWMIRDSNCNYEAFMNIIKLSDNIGELEAVRDKAAEELQYLRSLDTAGDDINTIKNQINSLLFVKKVCDSRIQRLQSGKEINTVKLAANFGKLCTVPLDSILVDNVALQFFMDYMQQTGGQAHLFFWMTVEGYRVTAQQQLEVLLSRQRDGKHQTNQTKGLLRAAAVGIYEQYLSEKASPRVTVDDYLVAKLADTLNHEDPTPEIFDDIQRKVYELMLRDERFYPSFRQNALYVRMLAELDMLKDPSFRGSDDGDGESFNGSPTGSINLSLDDLSNVSSDDSVQLHAYISDTVYADYDPYAVAGVCNDHGKTYALYAITVHRRNLNSEEMWKTYRRYSDFHDFHMRITEQFESLSSILKLPGKKTFNNMDRDFLEKRKKDLNAYLQLLLAPEMMKASPALAHYVYDFLENKAYSKGKGDFARKMDTFVNPLRNSMRNVSNAVKSLPDSLAEGMTKMSDNMGKMSERLGQDIKQSFFKVPPLIPKTDSDPEHRRVSAQLDDNVDDNIPLRVMLLLMDEVFDLKERNQWLRRNIKNLLQQLIRATYGDTINRKIVDHVDWMTSPEQVADSVKRFRDAFWPNGILAEAVPCRDKSIRMRTRVAGKTKLLAIMPDELKHIIGAETTRKGILRVFEMFQHNQLNRRMVYVFLEGFLETLFPQYKFRELFNKLHSRSKQMQKYKQKLQTTQAPSLQKR [SNX13] | -0.0268 | -0.221 |
